{"source": "patent US20220064275A1", "about": "(SCHOLAR ROCK, published 2022)", "binders": {"B1": {"name": "Ab6 (antibody, human IgG4 S228P, kappa, V domains shown)", "VH": "EVQLVESGGGLVQPGGSLRLSCTASGFTFSSFSMDWVRQAPGKGLEWVSYISPSADTIYYADSVKGRFTISRDNAKNTLYLQMNSLRAEDTAVYYCARGVLDYGDMLMPWGQGTLVTVSS", "VL": "DIQMTQSPSSLSASVGDRVTITCQASQDITNYLNWYQQKPGKAPKLLIYDASNLETGVPSRFSGSGSGTDFTFTISSLQPEDIATYYCQQADNHPPWTFGGGTKVEIKR"}}, "key": {"[1]": {"molecular_target": "T1, human GARP-proTGFβ1 complex (human, UniProt Q14392 20-627; P01137 30-390)", "T1 construct": "also called hGARP-proTGFβ1; hGARP", "T1 sequence (Q14392 20-627, chain 1 of 2)": "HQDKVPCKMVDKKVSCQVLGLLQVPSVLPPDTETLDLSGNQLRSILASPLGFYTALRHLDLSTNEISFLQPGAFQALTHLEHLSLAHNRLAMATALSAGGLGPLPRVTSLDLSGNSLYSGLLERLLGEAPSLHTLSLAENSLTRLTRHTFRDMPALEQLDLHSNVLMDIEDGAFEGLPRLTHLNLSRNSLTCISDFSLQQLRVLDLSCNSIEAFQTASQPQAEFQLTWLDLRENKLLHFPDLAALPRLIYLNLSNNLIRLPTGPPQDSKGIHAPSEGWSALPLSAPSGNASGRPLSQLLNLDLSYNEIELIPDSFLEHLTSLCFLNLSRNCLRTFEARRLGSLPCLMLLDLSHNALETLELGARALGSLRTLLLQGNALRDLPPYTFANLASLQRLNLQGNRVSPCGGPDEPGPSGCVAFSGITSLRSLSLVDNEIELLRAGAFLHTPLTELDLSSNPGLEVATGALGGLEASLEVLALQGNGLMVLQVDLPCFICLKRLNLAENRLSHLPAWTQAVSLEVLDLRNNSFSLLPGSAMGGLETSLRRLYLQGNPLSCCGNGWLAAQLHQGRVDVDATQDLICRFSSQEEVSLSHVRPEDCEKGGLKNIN", "T1 sequence (P01137 30-390, chain 2 of 2)": "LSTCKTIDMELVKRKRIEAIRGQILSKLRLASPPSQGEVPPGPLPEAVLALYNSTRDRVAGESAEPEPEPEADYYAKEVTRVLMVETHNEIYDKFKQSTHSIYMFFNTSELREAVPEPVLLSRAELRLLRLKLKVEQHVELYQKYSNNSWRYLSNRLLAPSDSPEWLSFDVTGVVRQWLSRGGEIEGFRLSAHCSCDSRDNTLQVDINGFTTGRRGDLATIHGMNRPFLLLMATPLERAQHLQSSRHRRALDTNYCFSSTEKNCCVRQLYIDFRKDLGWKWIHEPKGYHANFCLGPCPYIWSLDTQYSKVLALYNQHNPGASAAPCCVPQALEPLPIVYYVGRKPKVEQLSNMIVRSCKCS", "test": "MSD-SET, solution equilibrium titration", "method": "(§1) MSD-SET assays were performed to measure affinities of the antibodies at equilibrium. Briefly, each test antibody was diluted 3-5 fold and samples were mixed with biotinylated antigen in a 48-well dish. The SET samples were equilibrated for 20-24 hours at room temperature. Meanwhile, a capture plate was coated with IgG (20 nM) and incubated overnight at 4° C. or 30 minutes at room temperature, followed by a blocking step with 5% BSA. After the capture plate was washed three times, SET samples were added and incubated for 150 seconds. The plate was washed once to remove unbound complexes. 250 ng/ml SA-Sulfotag was added then washed 3 times. 2× Read Buffer was added, and signals from the labeled bound complexes were read with the use of QuickPlex™ SQ 120 instrument.\n(§2) As an example, MSD standard plates (MSD) were coated with a 20 nM solution of monoclonal antibody in PBS for 30 min at room temperature or overnight at 4° C. […] After 20-24 hours of equilibration, the antibody-coated plate was blocked with Blocking Buffer A (MSD) for 30 minutes at room temperature and washed with wash buffer (PBS, 0.1% BSA, 0.05% Tween-20) before adding the equilibrated antibody-antigen complexes to the plate for exactly 2.5 minutes. The plate was washed again with wash buffer before adding 250 ng/ml SULFO-TAG-labeled streptavidin secondary reagent (MSD) in PBS with 0.1% BSA. After washing with wash buffer, plates were read in MSD read buffer (MSD) using the MESO QuickPlex SQ 120 (MSD). The binding data were processed by nonlinear curve fitting in Prism 7 software (Graphpad) to calculate equilibrium binding KD values."}, "[2]": {"molecular_target": "T2, human LRRC33-proTGFβ1 complex (human, UniProt Q86YC3 19-650; P01137 30-390)", "T2 construct": "also called hLRRC33-proTGFβ1; hLRRC33", "test": "MSD-SET, solution equilibrium titration", "method": "as §1, §2"}, "[3]": {"molecular_target": "T3, murine LTBP1-proTGFβ1 complex (mouse, UniProt Q8CG19 339-1712; P04202 30-390, limits assumed)", "T3 construct": "also called mLTBP1-proTGFβ1", "T3 sequence (Q8CG19 339-1712 limits assumed, chain 1 of 2)": "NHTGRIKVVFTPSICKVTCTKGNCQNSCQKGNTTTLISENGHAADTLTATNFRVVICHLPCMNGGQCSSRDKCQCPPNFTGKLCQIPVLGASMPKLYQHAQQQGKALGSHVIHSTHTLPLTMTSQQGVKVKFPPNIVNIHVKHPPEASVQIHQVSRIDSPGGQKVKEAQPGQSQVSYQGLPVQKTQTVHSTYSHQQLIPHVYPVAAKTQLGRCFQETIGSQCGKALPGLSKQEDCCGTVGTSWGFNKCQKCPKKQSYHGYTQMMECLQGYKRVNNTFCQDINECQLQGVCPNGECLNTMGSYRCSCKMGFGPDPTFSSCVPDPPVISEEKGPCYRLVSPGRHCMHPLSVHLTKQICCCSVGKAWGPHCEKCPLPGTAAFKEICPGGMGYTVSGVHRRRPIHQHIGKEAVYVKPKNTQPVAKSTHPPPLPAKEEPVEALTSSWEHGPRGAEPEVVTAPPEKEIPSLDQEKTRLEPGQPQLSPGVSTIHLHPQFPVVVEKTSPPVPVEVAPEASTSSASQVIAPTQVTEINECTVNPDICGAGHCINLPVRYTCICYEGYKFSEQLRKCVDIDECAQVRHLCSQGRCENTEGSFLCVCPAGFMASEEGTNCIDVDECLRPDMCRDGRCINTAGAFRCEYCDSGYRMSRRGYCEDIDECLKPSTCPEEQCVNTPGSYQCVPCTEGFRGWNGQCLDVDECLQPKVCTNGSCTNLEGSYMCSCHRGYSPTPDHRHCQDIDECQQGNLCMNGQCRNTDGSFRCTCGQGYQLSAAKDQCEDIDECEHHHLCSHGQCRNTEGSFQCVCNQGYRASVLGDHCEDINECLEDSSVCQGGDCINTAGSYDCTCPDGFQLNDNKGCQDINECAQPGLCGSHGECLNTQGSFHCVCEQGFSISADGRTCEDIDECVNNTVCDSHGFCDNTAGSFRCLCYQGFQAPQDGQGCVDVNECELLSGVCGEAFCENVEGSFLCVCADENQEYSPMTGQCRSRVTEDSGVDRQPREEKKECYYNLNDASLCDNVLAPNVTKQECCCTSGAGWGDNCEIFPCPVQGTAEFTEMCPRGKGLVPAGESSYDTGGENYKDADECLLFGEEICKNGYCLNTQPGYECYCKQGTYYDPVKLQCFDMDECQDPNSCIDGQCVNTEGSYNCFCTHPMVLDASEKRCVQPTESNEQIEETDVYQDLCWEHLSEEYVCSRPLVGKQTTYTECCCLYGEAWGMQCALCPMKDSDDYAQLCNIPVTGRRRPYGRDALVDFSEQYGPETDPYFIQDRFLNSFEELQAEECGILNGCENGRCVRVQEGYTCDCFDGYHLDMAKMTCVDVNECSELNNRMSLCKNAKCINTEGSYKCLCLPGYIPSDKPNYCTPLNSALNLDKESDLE", "T3 sequence (P04202 30-390 limits assumed, chain 2 of 2)": "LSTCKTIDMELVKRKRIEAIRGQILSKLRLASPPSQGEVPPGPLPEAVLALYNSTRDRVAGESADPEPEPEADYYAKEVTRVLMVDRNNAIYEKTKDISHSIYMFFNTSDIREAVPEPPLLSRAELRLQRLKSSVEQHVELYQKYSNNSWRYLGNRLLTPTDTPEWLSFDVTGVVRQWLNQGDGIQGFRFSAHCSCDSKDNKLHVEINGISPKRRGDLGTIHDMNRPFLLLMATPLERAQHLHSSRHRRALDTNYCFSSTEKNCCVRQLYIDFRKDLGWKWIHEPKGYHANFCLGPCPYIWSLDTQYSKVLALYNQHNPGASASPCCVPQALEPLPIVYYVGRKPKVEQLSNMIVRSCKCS", "test": "MSD-SET, solution equilibrium titration", "method": "as §1, §2"}, "[4]": {"molecular_target": "T4, human LTBP3-proTGFβ1 complex (human, UniProt Q9NS15 866-1039)", "T4 construct": "range 866-1039; also called hLTBP3-proTGFβ1; hLTBP3", "T4 sequence (Q9NS15 866-1039 limits assumed, chain 1 of 2)": "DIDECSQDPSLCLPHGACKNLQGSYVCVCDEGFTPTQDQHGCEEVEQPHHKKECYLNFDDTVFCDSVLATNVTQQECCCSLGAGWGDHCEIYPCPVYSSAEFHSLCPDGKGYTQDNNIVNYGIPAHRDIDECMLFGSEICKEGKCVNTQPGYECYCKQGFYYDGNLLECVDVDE", "T4 sequence (chain, as listed by the source limits assumed, chain 2 of 2)": "as the sequence (P01137 30-390, chain 2 of 2) above", "test": "MSD-SET, solution equilibrium titration", "method": "as §1, §2"}, "[5]": {"molecular_target": "T5, human LTBP1-proTGFβ1 complex (human, UniProt Q14766 873-1507)", "T5 construct": "range 873-1507; biotinylated in Octet and MSD-SET; also called hLTBP1-proTGFβ1; hLTBP1", "T5 sequence (Q14766 873-1507 limits assumed, chain 1 of 2)": "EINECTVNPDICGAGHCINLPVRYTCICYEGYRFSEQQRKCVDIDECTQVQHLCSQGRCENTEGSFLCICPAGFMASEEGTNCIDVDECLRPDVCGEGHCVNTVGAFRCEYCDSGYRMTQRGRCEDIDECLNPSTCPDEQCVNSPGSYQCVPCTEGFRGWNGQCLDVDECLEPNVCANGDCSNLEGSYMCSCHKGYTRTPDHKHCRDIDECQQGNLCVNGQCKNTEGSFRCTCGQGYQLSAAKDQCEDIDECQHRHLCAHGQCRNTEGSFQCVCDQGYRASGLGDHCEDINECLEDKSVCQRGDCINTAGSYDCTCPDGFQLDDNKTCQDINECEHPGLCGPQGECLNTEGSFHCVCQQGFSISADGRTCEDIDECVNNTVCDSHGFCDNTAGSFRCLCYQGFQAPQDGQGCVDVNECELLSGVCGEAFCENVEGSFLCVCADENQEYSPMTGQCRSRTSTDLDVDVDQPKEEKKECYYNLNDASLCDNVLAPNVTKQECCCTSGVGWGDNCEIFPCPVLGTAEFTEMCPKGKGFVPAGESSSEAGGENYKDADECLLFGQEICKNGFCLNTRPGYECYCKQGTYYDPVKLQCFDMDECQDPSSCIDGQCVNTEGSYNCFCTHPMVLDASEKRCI", "T5 sequence (chain, as listed by the source limits assumed, chain 2 of 2)": "as the sequence (P01137 30-390, chain 2 of 2) above", "test": "MSD-SET, solution equilibrium titration", "method": "as §1, §2"}, "[6]": {"molecular_target": "T6, murine GARP-proTGFβ1 complex (mouse, UniProt G3XA59 18-628; P04202 30-390)", "T6 construct": "Soluble murine complex; also called mGARP-proTGFβ1", "T6 sequence (G3XA59 18-628, chain 1 of 2)": "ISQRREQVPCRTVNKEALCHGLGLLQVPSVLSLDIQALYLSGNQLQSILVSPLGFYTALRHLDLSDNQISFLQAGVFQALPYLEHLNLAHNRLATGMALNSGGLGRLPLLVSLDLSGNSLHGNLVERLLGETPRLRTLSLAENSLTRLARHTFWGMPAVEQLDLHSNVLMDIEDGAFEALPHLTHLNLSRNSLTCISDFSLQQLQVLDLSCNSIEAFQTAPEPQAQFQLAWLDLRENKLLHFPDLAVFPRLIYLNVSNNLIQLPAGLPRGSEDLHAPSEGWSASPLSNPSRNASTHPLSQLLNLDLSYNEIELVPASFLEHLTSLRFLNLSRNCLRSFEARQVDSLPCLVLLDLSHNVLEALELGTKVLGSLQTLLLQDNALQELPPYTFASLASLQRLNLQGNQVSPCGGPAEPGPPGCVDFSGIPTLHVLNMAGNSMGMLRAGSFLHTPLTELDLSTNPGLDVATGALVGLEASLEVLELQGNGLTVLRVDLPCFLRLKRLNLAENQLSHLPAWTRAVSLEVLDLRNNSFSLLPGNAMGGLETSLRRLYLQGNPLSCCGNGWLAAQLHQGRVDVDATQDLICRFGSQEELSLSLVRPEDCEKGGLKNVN", "T6 sequence (P04202 30-390, chain 2 of 2)": "as the sequence (P04202 30-390 limits assumed, chain 2 of 2) above", "test": "MSD-SET, solution equilibrium titration", "method": "as §1, §2"}, "[7]": {"molecular_target": "T7, murine LTBP3-proTGFβ1 complex (mouse, UniProt Q61810 41-1245; P04202 30-390, limits assumed)", "T7 construct": "also called mLTBP3-proTGFβ1", "test": "MSD-SET, solution equilibrium titration", "method": "as §1, §2"}, "[8]": {"molecular_target": "T8, murine LRRC33-proTGFβ1 complex (mouse, UniProt Q8BMT4 20-651, limits assumed)", "T8 construct": "also called mLRRC33-proTGFβ1", "T8 sequence (Q8BMT4 20-651 limits assumed, chain 1 of 2)": "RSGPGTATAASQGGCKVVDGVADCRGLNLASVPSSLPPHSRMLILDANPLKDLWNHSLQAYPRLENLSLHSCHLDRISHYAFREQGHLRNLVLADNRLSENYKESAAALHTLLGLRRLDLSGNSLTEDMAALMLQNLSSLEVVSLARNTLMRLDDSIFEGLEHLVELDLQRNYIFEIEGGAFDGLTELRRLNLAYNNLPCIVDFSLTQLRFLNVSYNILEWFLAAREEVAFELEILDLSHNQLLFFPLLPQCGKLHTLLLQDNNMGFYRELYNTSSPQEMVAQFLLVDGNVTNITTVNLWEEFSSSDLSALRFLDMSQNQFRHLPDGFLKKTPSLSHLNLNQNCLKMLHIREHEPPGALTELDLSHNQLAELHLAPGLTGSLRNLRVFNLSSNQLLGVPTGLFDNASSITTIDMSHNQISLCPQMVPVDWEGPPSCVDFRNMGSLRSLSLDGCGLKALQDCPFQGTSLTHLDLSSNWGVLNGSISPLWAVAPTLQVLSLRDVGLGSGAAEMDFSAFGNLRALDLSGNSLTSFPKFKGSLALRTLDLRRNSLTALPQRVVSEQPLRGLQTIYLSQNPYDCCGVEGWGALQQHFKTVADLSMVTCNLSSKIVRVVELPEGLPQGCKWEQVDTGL", "T8 sequence (chain, as listed by the source limits assumed, chain 2 of 2)": "as the sequence (P04202 30-390 limits assumed, chain 2 of 2) above", "test": "MSD-SET, solution equilibrium titration", "method": "as §1, §2"}, "[9]": {"molecular_target": "T9, human mature TGFβ3 growth factor (human, UniProt P10600 301-412)", "T9 construct": "mature", "T9 sequence (looked up)": "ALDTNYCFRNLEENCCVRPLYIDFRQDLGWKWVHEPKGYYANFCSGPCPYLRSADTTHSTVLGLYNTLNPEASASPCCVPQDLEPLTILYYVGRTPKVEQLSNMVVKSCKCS", "test": "in vitro binding assay (BLI protocol at p-1008)", "method": "(§3) AR2G biosensors were first allowed to hydrate in water offline for at least 10 minutes before initiation of the experiment. Upon initiation of the experiment, AR2G tips were equilibrated in water for 1 minute. Then, the tips were moved into a freshly prepared activation solution (18 parts water, 1 part 400 mM EDC (1-Ethyl-3-[3-dimethylaminopropyl] carbodiimide hydrochloride), and 1 part 200 mM sulfo-NHS (N-hydroxysulfosuccinimide)) for 5 minutes. Recombinant TGFβ protein (10 ug/mL in 10 mM sodium acetate buffer pH 5) was coupled to the activated tips for 3 minutes before quenching with ethanolamine pH 8.5 for 15 minutes. […] Finally, a ten minute dissociation was performed."}, "[10]": {"molecular_target": "T10, human mature TGFβ2 growth factor (human, UniProt P61812 303-414)", "T10 construct": "mature", "T10 sequence (looked up)": "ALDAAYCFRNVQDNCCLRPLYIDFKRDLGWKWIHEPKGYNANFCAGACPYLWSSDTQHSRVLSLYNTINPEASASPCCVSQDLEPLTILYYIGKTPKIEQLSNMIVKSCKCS", "test": "in vitro binding assay (BLI protocol at p-1008)", "method": "as §3"}, "[11]": {"molecular_target": "T1, human GARP-proTGFβ1 complex", "test": "MSD-SET, solution equilibrium titration", "method": "as §1, §2", "remark": "listed apart in the source"}, "[12]": {"molecular_target": "T3, murine LTBP1-proTGFβ1 complex", "test": "MSD-SET, solution equilibrium titration", "method": "as §1, §2", "remark": "listed apart in the source"}, "[13]": {"molecular_target": "T4, human LTBP3-proTGFβ1 complex", "test": "MSD-SET, solution equilibrium titration", "method": "as §1, §2", "remark": "listed apart in the source"}, "[14]": {"molecular_target": "T11, cynomolgus LRRC33-proTGFβ1 complex (cynomolgus monkey, UniProt A0A7N9CII2 32-663)", "T11 construct": "also called Cyno LRRC33-proTGFβ1", "test": "MSD-SET, solution equilibrium titration", "method": "as §1, §2"}, "[15]": {"molecular_target": "T5, human LTBP1-proTGFβ1 complex", "test": "MSD-SET, solution equilibrium titration", "method": "as §1, §2", "remark": "listed apart in the source"}, "[16]": {"molecular_target": "T12, cynomolgus LTBP1-proTGFβ1 complex (cynomolgus monkey)", "T12 construct": "also called Cyno LTBP1-proTGFβ1", "test": "MSD-SET, solution equilibrium titration", "method": "as §1, §2"}, "[17]": {"molecular_target": "T6, murine GARP-proTGFβ1 complex", "test": "MSD-SET, solution equilibrium titration", "method": "as §1, §2", "remark": "listed apart in the source"}, "[18]": {"molecular_target": "rat LTBP1-proTGFβ1 complex (rat, UniProt Q00918 339-1712; P17246 30-390)", "test": "MSD-SET, solution equilibrium titration", "method": "as §1, §2"}}, "note": "Like-named read-outs stand apart in the source and are kept apart here.", "data": [{"binder": "B1", "values": [{"measurement": "Kd", "setting": "[1]", "result": 0.027, "unit": "nM"}, {"measurement": "Kd", "setting": "[2]", "result": 0.063, "unit": "nM"}, {"measurement": "Kd", "setting": "[3]", "result": 0.024, "unit": "nM"}, {"measurement": "Kd", "setting": "[4]", "result": 0.029, "unit": "nM"}, {"measurement": "Kd", "setting": "[5]", "result": 0.018, "unit": "nM"}, {"measurement": "Kd", "setting": "[6]", "result": 0.021, "unit": "nM"}, {"measurement": "Kd", "setting": "[7]", "result": 0.028, "unit": "nM"}, {"measurement": "Kd", "setting": "[8]", "result": 0.048, "unit": "nM"}, {"measurement": "binding result", "setting": "[9]", "result": "no binding"}, {"measurement": "binding result", "setting": "[10]", "result": "no binding"}, {"measurement": "Kd", "setting": "[11]", "result": 0.027, "unit": "nM"}, {"measurement": "Kd", "setting": "[12]", "result": 0.024, "unit": "nM"}, {"measurement": "Kd", "setting": "[13]", "result": 0.029, "unit": "nM"}, {"measurement": "Kd", "setting": "[14]", "result": 0.093, "unit": "nM"}, {"measurement": "Kd", "setting": "[15]", "result": 0.018, "unit": "nM"}, {"measurement": "Kd", "setting": "[16]", "result": 0.039, "unit": "nM"}, {"measurement": "Kd", "setting": "[17]", "result": 0.021, "unit": "nM"}, {"measurement": "Kd", "setting": "[18]", "result": 0.035, "unit": "nM"}]}]}
